Measurements as given in publication PMC2998070.

Molecular target: mouse VMS1-Flag-HA (mouse) (UniProt Q80UU1)
Assay: co-IP

Chain of VCP (Q01853 whole entry): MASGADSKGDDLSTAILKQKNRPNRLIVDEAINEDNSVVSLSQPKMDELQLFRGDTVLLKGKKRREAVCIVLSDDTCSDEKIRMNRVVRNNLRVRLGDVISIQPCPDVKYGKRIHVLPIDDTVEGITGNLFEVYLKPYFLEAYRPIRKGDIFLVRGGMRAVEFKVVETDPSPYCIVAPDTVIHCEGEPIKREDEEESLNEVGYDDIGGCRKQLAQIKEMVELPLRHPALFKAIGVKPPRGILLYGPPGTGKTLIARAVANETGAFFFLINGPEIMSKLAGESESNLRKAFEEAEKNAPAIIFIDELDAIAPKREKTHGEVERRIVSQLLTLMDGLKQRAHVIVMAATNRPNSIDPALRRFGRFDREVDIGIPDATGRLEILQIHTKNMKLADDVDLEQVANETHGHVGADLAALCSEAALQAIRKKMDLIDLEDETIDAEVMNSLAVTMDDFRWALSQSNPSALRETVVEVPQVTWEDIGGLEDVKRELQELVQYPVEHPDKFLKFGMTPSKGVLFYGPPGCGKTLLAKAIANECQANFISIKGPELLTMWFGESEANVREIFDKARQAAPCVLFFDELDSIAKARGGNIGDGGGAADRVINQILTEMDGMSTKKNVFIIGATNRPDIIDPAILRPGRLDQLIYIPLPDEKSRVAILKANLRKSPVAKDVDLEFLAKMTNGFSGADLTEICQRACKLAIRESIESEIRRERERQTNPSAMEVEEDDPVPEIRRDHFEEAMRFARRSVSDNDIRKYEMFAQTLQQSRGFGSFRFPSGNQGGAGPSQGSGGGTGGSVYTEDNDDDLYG
Chain of UniProt Q80UU1 (Q80UU1 whole entry): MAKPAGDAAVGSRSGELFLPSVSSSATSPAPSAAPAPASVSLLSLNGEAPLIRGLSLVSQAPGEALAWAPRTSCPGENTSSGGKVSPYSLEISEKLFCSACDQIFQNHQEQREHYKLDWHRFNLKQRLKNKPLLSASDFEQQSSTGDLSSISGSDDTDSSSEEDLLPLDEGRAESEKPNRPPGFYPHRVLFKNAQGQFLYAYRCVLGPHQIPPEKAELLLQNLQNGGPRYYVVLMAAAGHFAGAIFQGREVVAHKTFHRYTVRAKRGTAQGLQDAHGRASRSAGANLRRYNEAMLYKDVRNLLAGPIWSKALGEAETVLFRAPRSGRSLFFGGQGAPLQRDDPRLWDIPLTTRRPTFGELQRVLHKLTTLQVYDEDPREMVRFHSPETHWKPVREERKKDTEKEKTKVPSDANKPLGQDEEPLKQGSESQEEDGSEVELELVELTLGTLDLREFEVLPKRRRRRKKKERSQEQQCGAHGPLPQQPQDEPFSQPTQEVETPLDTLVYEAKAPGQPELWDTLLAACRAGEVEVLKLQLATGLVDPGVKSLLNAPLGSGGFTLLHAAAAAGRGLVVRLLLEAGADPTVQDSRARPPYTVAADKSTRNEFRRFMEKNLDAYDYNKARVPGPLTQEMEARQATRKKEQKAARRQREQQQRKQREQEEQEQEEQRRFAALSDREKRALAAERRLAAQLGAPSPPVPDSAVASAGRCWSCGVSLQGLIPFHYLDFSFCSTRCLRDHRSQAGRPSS

percent of the total cellular VCP associated with Vms1: < 5%
Substance: VCP (from UniProt Q01853 1-806) (natural protein)
